Source: the RNAGym collection of RNA variant scans (doi:10.1073/pnas.2313332121)

B1: TPR t1 (parent)
chain: GACCAAUCUGCCCUCAGAGCUCGAGAACAUCUUCGGAUGCAGAGGAGGCAGGCUUCGGUGGCGCGAUAGCGCCAACGUCCUCAACCUCCAAUGCAUCCCACCACAUGAUGAUGCCUGAAGAGCCUUGGUUUUUUG

Variants of: B1
Test: polymerase ribozyme fitness, log enrichment relative to wild type (log ratio); higher = more active; in vitro selection for triplet polymerase activity
Summary of the method: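 Fitness compares each genotype's enrichment to that of the wild type on a logarithmic scale, averaging replicates with inverse-variance weights. The logarithm is base 2. Enrichment came from Illumina sequencing of input and output libraries after one triplicate round of in vitro selection, which included frozen incubation at −7 °C, of PCR-built, transcribed mutant libraries of each subunit of a heterodimeric triplet polymerase ribozyme. Only genotypes with ≥10 input reads and ≥1 read per output were kept.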

| Variant | polymerase ribozyme fitness (log ratio) |
| --- | --- |
| GCCCAAUCUGCCCUCAGAGCUCGAGAACAUCUUCGGAUGCAGAGGAGGCAGGCUUCGGUGGCCCGAUAGCGCCAACGUCCUCAACCUCCAAUGCAUCCCACCACAUGAUGAUGCCUGAAGAGCCUUGGUAUUUUG | -2.69 |
| GCCCAAUCUGCGCUCAGAGCUCGAGAACAUCUUCGGAUGCAUAGGAGGAAGGCUUCGGUGGCGCGAUAGCGCAAACGUCCUUAACCUCCAAUGCAUCCCACCACAUGAUGCUGCCUGAAGAGCCUUGGUUUUUUG | -5.3 |
| GCCCAAUCUGCACUCAGAGCUCGAGAACAUCUUCGGAUGCAGAGGAGGCAGGCUUCGGUGGCGCGUUAGCGCCAACGUCCUCAACCUCCAAUGCAUCCCACCAUAUGAUGAUGCCUGAAGAGCCUUGGUUUUUUG | -3.52 |
| GCCCAAUCUGCCCUCAGAGCUCGAGAACAUCUUCGGAUGCAGAGGAGGCAGGCUUCGGUGGCGCGAUAGCGACAACGUCCUCAACCUCCAAUGCAUCCCACCACAUGAUGAUGCGUGAAGAGCCUUGGUUUUUUG | -3.29 |
| GCCCAAUCUGCCCUCAGAGCUCGAGAACAUCUUCGGAUGCAGAGGAGGCAGGCUUCGGUGGCACGAUAGCGCCAACGUCCUCAACCUCCAAUGCAUCCCACCACAUGAUGAUGCCUGAAGAGCCUUGGUUUUUUG | -2.37 |
| GCCCAAUCUGCCCUCAGAGCUCGAGAACAUCUUCGGAUGCUGAGGAGGCAGGCUUCGGUGGCGCGAUAGCGCCAACGGCCUCAACCUCCAAUGCAUCCCACCACAUGAUGAUGCCUGAAGAGCCUUGGUUUUUUG | -3.61 |
| GCCCAAUCUGCCGUCAGAGCUCGAGAACAUCUUCGAAUGCAGAGGAGGCAGGCUUCGGUGGCACGAUAGCGCCAACGUCCUCAACCUCCAAUGCAUCCCACCACAUGAUGAUGCCUGAAGAGCCUUGGUUUUUUG | -5.73 |
| GCCCAAUCUGCCCUCAGAGCUCGAGAACAUCUUCGGAUGCAGAGGAGGCAGGCUUCCGUGGCGCGAUAGCACCAACGUCCUCAACCUCCAAGGCAUCCCACCACAUGAUGAUGCCUGAAAAGCCUUGGUUUUUUG | -6.04 |
| GCACAAUCAGCCCUCAGAGUUCGAGAACAUCUUCGGAUGCAGAGGAGGCAGGCUUCGGUGGCGCGAUAGCGCCAACGUCCUCAACCUCCAAUGCAUCCCACCACAUGAUGAUGCCUGAAUAGCCUUGGUUUUUUG | -0.418 |
| GCCCCAUCUGCCCUCAGAGCUCGAGAACAUCUUCGGAUGCAGAGGAGGCAGGCUUCGGUGGCGCGAUAGCGCCAACGUCCUCAACCUCCAAUGCAUCCCACCACAUGAUGAUGGCUGAAGAGCAUUGGUUUUUUG | -3.41 |
| GCCCAAUCUGCCCUCAGAGCUCGAGAACAUCUUCGGAUGCAAAGGGGGCAGGCUUCGGUGGCGCGAUAUCGCCAACGUCCUCAACCUCCAAUGCAUCCCACCACAUGAUGAUGCGUGAAGAGCCUUGGUUUUUUG | -4.92 |
| GCCCAAUCUGCCCUCAGAGCUCGAGAACAUCUUCGGAUGCAGAGGAGGCAGGCUUCGGUGGCGCGAUAGCGCCAACGUCCUCAACCUCCAAUGCAUCCCAACACAAGAUGAUGCUUGAGGAGCCUUGGUUUUUUG | 0.154 |
| GCACAAUCAGCCCUCAGAGUUCGAGAACAUCUUCGGAUGCAGAGGAGGCAGGCUUCGGUGGCCCGAUAGCGCCAACGUCCUCAACCUCCAAUGCAUCCCACCACAUGAUGAUGCCUGAAUAGCCUUGGUUUUUUG | -1.07 |
| GCCUAAUCUGCCAUCAGAGCUCGAGAACAUCUUCGGAUGCAGAGGAGGAAGGCUUAGGUGGCGCGAUAGCACCAACGUCCUCAACCACCAAUGCAUCCCACCACAUGAUGAUGCCUGAAGAGCCUUGGUUUUUUG | -6.32 |
| GCCCAAUCUGCCCUCAGAGCUCGAGAAUAUCUUCGGAUGCAGAGGAGGCAGGCUUCGGUGGCGCGAUAGCACCAACGACCUCAACCUCCGAUGCAUCCCACCACAUGAUGAUGCCUGAAGAGCCUUGGUUUUUUG | -5.83 |
| GCCCAAUCUGCCCUCAGAGCUCGAGAACAUCUUCGGAUGCAGAGGAGGCAGGCUUCGGUGGCGCGAUAGCGCUAACGUCCUCAACCUCCAAUGCAUCCCACCACAUGAUGAUGCCUGAAGAGCCUUGGUUUUUUG | -1.65 |
| GCCCUAUCUGCCCUCAGAGCUCGAGAACAUCUUCGGAUGCAGAGGAGGCAGUCUUCGGUGGAGCGAUAGCGCCAACGUCCUCAACCUCCAAUGCAUCCCACCACAUGAUGAUGCCUGAAGAGCCUUGGUUUUUUG | -4.11 |
| GCCCAAUCUGCCCUCAGAGCUCGAGAACAUCUUCGGAUGCAGAGGCGGCAGGCUACGGUGGCGGGAUAGCGCCAACGUCCUCAUCCUCCAAUGCAUCCCACCACAUGAUGAUGCCUGAAGAGCCUUGGUUUUUUG | -7.2 |
| GCCCAAUCUGCCCUCAGAGCUCGAGAACAUCUUCGGAUGCAGAGGAGGAAGGCUUCGGUGGCGCGAUAGCGCCAACGUCCUCAACCAACAAUGCAUCCCACCACAUGAUGAUGCCUGAAGAGCCUUGGUUUUUUG | -3.11 |
| GCCCAAUCUGCCCUCAGAGCUCGAGAACAUCUUCGGAUGCAGAGGAGGCAGGCUUCGGUGACGCGAUAGCGCCAACGUCCUCAACCUCCAAUGCAUCCCACCACAUGAUGAUGCCUGAAGAGCCUUGGUUUUUUG | -1.72 |
| GCCCAAUCUGCCCUCAGAGCUCGAGAACAUCUUCGGAUGCAGAGGAGGCAGGCUUCGGUGGCUCGAUAGCGCCAACGUCCUCAACCUCCAAUGCAUCCCACCACAUGAUGAUGCCUGAAGAGCCUUGGAUUUUUG | -2.77 |

| Variant | polymerase ribozyme fitness (log ratio) |
| --- | --- |
| GCCCAAUCUGCGCUCAGAGCUCGAGAACAUCUUCGGAUGCAGAGGAGGCAGGCUUCGGUGGCGCGAUACCGCCAACGUCCUCAACCUCCAAUGCAUCCCACCACAUGAUUAUGCCUGAAGAGCCUUGCUUUUUUG | -5.29 |
| GCCCAAUCUGCGCUCAGAGCUCGAGAACAUCUUCGGAUGCAGAGGCGGCAGGCUUCGGUGGCGCGAUAGCGUCAACGUCCUCAACCUCCAAUGCAUCCCACCACAUGAUGAUUCCUGAAGAGCCUUGGUUUUUUG | -7.24 |
| GCCCAAUCUGCCCUCAGAGCUCGAGACCAUCUUCGGAUGCAGAGGAGGCAGGCUUCGGUGGCGCGAUAGCGCCAACGUCCUCAACCUCCAAUGCAUCCCACCACAUGAUGAUGCCUGAAGAGCCUUCGUUUUUUU | -6.34 |
| GCCCAAUCUGCCCUCAGAGCUCGAGAACAUCUUCGGAUGCAGAGGAGGCAGGCUUCGGUGACGCGAUAGCGCCAACGUCCUGAACCUCCAAUGCAUCCCACCACAUGAUGAUGCCUGAAGAGCCUUGGUUUUUUG | -2.65 |
| GCCCAAUCUGCCCUCAGAGCUCGAGAACAUCUUCGGAUGCAGAGGAGGCAGGCUUCGGUGGCGCGAUAGCGCCAACGUCCUAAACCUCCAAUGCAUCCCACCACAUGAUGAUGCCUGAAGAGCCUUGGUUUUUUG | -2.04 |
| GCCCAAUCUGCCCUCAGAGCUCGAGAACAUCUUCGGAUGCAGAGGAGGCAGGCUUCGGUGACGCGAUAGCGCCAACGUCCUCAACCUCCAAUGUAUCCCACCACAUGAUGAUGCCUGAAGAGCCUUGGUUUUUUG | -0.931 |
| GCCCAAUCUGCCCUCAGAGCUCGAGAACAUCUUCGGAUGCAGAGGAGGCAGGCUUCGGUGGCGCGAUAGCGCCAACGUCCUCAACCUCCAAUGCAUCCCACCACAUGAUGAUGCCUGAAGGGCCUUGGUUUUUUG | 0.405 |
| GCCCAAUAUGCCCUCAGAGCUCGAGAACAUCUUCGGAUGCACAGGAGGCAGGCAUCGGUGGCGCGAUAGCGCCAACGACCUCAACCUCCAAUGCAUCUCACCACAUGAUGAUGCCUGAAAAGCCUUCGUUUUUUG | -2.04 |
| GCGCAAUCUGCCCUCAGAGCUCGAGAACAUCUUCGGAUGCAGAGGAGGCAGGCUUCGGUGGCGCGAUAGCGCCAACGUCCUCAACCUCCUAUGCAUCCCACCACAUGAUGAUGCUUGAAGAGCCUUGGUUUUUUG | -3.68 |
| GCCCAAUCUGUCCUCAGAGCUCGAGAACAUCUUCGGAUGCAGAGGAGGCAGGCUUCGGUGGCGCGAUAGGGCCAACGUCCUCAACCUCCAAUGCAUCCCACCACAUGAUGAUGCCUGAAAAGCCUUGGUUUUUUG | -3.19 |
| GCCCAAUCUGCCCUCAGAGCUCGAGAACAUCUUCGGAUGCAGAGGAGGCAGGCUUCGGUGGCGCGAUAGAGCCAACGUCCUCAACCUCCAAUGCAUCCCACCACAUGAUGAUGCCCGAAGAGCCUCGGUUUUAUG | -5.29 |
| GCCCAAUCUGCCCUCAGAGCUCGAGAACAUCUUCGGAUGCAGAGGAGGCAGGCUUCGGUGGCUCGAUAGCGCCAACGUCCUCAACCUCCAAUGCAUCCCACCACAUGAUGAUGCCUGAAGAGCUUUGGUUUUUUG | -1.65 |
| GCCCAAUCUGCCCUCAGAGCUCGAGAACAUCUUCGGAUGUAGAGGAGGCAGGCUUCGGUGGCGCGAUAGCGCCAACGUCCUCAACCUCCAAUGCAUCCCACCACAUGAUGAUGCCUGAAGAGCCUUGGUUUUUUG | -2.06 |
| GCCCAAUCUGACCUCAGAGCUCGAGAACAUCUUCGGAUGCAGAGGAGUCAGGCUUCGGUGGCGCGAUAGCGUCAACGUCUUCAACCUCCAAUGCAUCCCACCACAUGAUGAUGCCUGAAUAGCCUUGGUUUUUUG | -3.83 |
| GCCCAAUAUGCCCUCAGAGCUCGAGAACAUCUUCGGAUGCAGAGGAGGCAGGCUUCGGUGGCGCGAUAGCGCCAACGUCCUCAACCUCCAAUGCAUCCCACCACAUGAUGAUGCCUGAAGAGCCUUGGUUAUUUG | -1.54 |
| GCCCAAUCUGCCGUCAGAGCUCGAGAACAUCUUCGGAUGCAGAGGAGGCAGGCUUCGGUGGCGCGAUAGCGCCAACGUCCUCAACCUCCAAUUCAUCCCACCACAUGAUGAUGCCUGAAUAGCCUUGGUUUUUUG | -2.23 |
| GCCCAAUCUGCCCUCAGAGCUCGAGAACAUCUUCGGAUGCAGAGGAGGCAGGCUUGGGUGGCGCGAUAGCGCCAACGUCCUCAACCUCCAAUGCAUCCCACCACAUGAUGAUGCCUGAAGAGCCUUGGUUUUUUG | -1.9 |
| GCCCACUAUGCCCUCAGAGCUCGAGAACAUCUUCGGAUGCAGAGGAGGCAGGCUUCGGUGGCGCGAUAGCACCAACGUCCUCAUCCUCCAAUGCAUCCCACCACAUGAUGAUGCCUGAAGAGCCUUGGAUUUUUG | -2.03 |
| GCCCAAUCUGCCCUCAGAGCUCGAGAACAUCUUCGGAUGCAGAGGAGGCAGGCUUCGGUGGCGCGAUAGCGCUAAGGUCCUCAACCUCCAAUGCAUCCCACCACAUGAUGAGGCCUGAAGAGCCUUGGUUUUUUG | -1.38 |
| GCCCAAUCUGCCCUCAGAGCUCGAGAACAUCUUCGGAUGCAGAGGAGGCAGGCUUCGGUGGCGCGUUAGCGCCAACGUCCUCAACCUCCAAUGCAUCCCACCACAUGAUGAUGCCUGAAGAGCCUUGGUUUUUUG | -2.86 |
| GCCCAAUCUGCCCUCAGAGCUCGAGAACAUCUUCGGAUGCAGAGGAGGCAGGCUUCGGUGGCGCGAUAACGCCAACGUCCUCAACCUCCAAUGCAUCCCACCACAUGAUGAUGACUGAAGAGCCUUGGUUUUUUG | -4.75 |
